Consider one substance from publication PMC8307315.

Holding throughout (test): SPR; Biacore 2000, CM4 chip; PSA amine-coupled, antibody or conjugate bound to it; 10 min into the dissociation phase 40 nM FcRn in 10 mM maleic acid (pH 6.0) flown over for 3 min; number of FcRn bound per antibody from the RUs at the end of the FcRn injection
A general note: In SPR one partner is held on a chip, and binding of the other changes the refractive index at the surface.

Assay [1] has as its target hu5A10-DOTA, 12:1 chelator-to-antibody molar ratio.
Assay [2] has as its target hu5A10-DTPA, 3:1 chelator-to-antibody molar ratio.
For assay [3], the target named is hu5A10-DOTA, 3:1 chelator-to-antibody molar ratio.
Assay [4] has as its target hu5A10-DTPA, 12:1 chelator-to-antibody molar ratio.
Assay [5] addresses humanized 5A10 (hu5A10), unconjugated.
Assay [6] concerns the target hu5A10-DTPA, 6:1 chelator-to-antibody molar ratio.
Assay [7] has as its target hu5A10-DOTA, 6:1 chelator-to-antibody molar ratio.

Regarding “neonatal fc-receptor (FcRn) (from UniProt P55899 24-297)”, the FcRn bound per antibody (FcRn per antibody) in assay [1] is 0.1; in assay [2] it was 1.9; in assay [3] it was 0.8; in assay [4], 1.7; in assay [5], 1.8; in assay [6] it was 1.9. In addition, in assay [7], the FcRn bound per antibody (FcRn per antibody) amounted to 0.5.
